According to patent US7901879B2, “Lactoferrin in the treatment of malignant neoplasms and other hyperproliferative diseases” (Agennix Incorporated, priority 2002, dated 2011):

What was measured:
[1] = tested on: Human squamous cell carcinoma (O12); experiment: Tumor growth inhibition by rhLF in O12 tumor model in mice (Example 1); format: in vivo, athymic nude mice
Description: Human squamous cell carcinoma (O12) was used. The cells were injected into the right flank of athymic nude mice. rhLF was administered either intratumorally (49 animals, 7 doses ranging from 0.05 μg to 125 μg per dose), intravenously (7 animals, 125 ug/dose) or orally (7 animals 20 mg/dose). Control animals were treated with only the vehicle; no rhLF was administered to the control animals. rhLF was administered twice a day for either five days (intravenous group) or eight days (all other groups) starting 11 days after inoculation with tumor cells to allow formation of established tumors.
The efficacy of treatment was evaluated by measuring the solid tumor size during and at the end of the experiment; the body weights were also determined at the time of tumor measurements.

circulating lymphocytes = experiment: Circulating lymphocytes after intratumoral rhLF in tumor-bearing mice (Example 18); format: in vivo, C3H/HeJ mice
Description: Normal C3H/HeJ mice were implanted with one of two mouse tumors following the methodology described in Example 17. Tumors used were SCCVII and RIF mouse tumor cell lines. Following establishment of the tumors in the mice, tumors were injected intratumorally daily for 4 days with 250 or 500 μg rhLF per dose or with vehicle control. Twenty four hours following the last intratumoral injection, animals were sacrificed and the blood examined for lymphocyte populations. The number of circulating lymphocytes were increased by 34% to 56% relative to the placebo treated control animals (Table 14).

IL-18 = IL-18 levels in small intestine and serum after oral rhLF or bLF (cytokine ELISA); format: in vivo, mice; details: for IL-18 Intestinal Extract / IL-18 Serum: 24 h after last dose
Description: Recombinant human lactoferrin and bovine lactoferrin were orally administered to mice, and the production of IL-18 in the small intestine was measured.
Mice were treated for three days daily with 65 mg/kg/day of rhLF, 300 mg/kg/day of rhLF or 300 mg/kg/day of bLF. For a control, mice were only administered the pharmaceutical carrier. Twenty-four hours following administration of the LF or control for 3 days, animals were weighed and blood and serum were collected. Serum was used for cytokine ELISA assays.
Also, at these time points, animals were sacrificed and the small intestinal tissue was removed for further analysis. Small intestinal epithelium was homogenized using a lysis buffer consisting of PBS, 1% Nonidet P-40, 0.5% sodium deoxycholate, and 0.1% sodium dodecyl sulphate containing 10 μg/ml PhenylMetheylsulfonyl fluoride. Homogenate was centrifuged at 15,000 rpm for 10 minutes and the supernatant stored at −80 C. till it was tested for IL-18 levels.

[2] = tested on: murine squamous carcinoma cell line (SCCVII); experiment: SCCVII floor-of-mouth tumor growth, oral rhLF and/or cisplatin (Example 6); format: in vivo, immunocompetent C3H mice; details: rhLF alone 200 mg/kg oral once daily days 5-12
Description: A murine squamous carcinoma cell line (SCCVII) was injected into the floor of the mouth through the neck skin of immunocompetent C3H mice (Day 0). […] Tumors were measured in three dimensions with calipers.
Tumor-bearing mice were randomized into a control group and seven groups receiving rhLF and/or cisplatin. RhLF (4 mg; 200 mg/Kg) was administered once daily by oral gavage for 8 days on days 5 through 12. Cisplatin was administered as a single dose of 5 mg/Kg given intraperitoneally either at the start of rhLF (day 5), in the middle (day 8) or at the end (day 12) of rhLF therapy. Animals were sacrificed on day 12 post-implantation and the residual tumor masses were measured and processed for later additional analyses.

metastatic cancer = experiment: Oral rhLF in human patients with metastatic cancer, tumor size by CT; format: in vivo
Description: Recombinant human lactoferrin was orally administered to human patients with a range of metastatic cancer types that had failed standard chemotherapy in two different studies conducted in multiple centers in four countries (Argentina, Brazil, Chile, U.S.) RhLF was administered at doses of 1.5 to 9 grams daily in two divided doses in cycles of 14 each with a 14 day gap.
Tumor size progression was monitored through CT scans and tumor markers where available. CT scans were performed at baseline and after each 8-week period once treatment was initiated, and also compared with a pre-baseline scan conducted prior to enrollment in the study. Tumor markers are measured every 4 weeks. Blood samples were collected to measure subclasses of circulating lymphocytes and NK cell activity. Plasma, serum and blood cell extract samples were collected to measure circulating IL-18, IL-1, IL-2, and IL-4, IL-5, IL-10, IL-12 and IFN-γ.

GM-CSF = GM-CSF production in small intestine after oral rhLF (ELISA); format: in vivo, mice; details: oral 300 mg/kg/day three days
Description: Recombinant human lactoferrin or placebo were orally administered to mice, and the production of GM-CSF in the small intestine was measured.
Mice (5 animals per group) were treated for three days daily with 300 mg/kg/day of rhLF. For a control, mice were only administered the pharmaceutical carrier. Twenty-four hours following administration of the LF or placebo for 3 days, animals were and the small intestinal tissue was removed for further analysis. Small intestinal epithelium was homogenized using a lysis buffer consisting of PBS, 1% Nonidet P-40, 0.5% sodium deoxycholate, and 0.1% sodium dodecyl sulphate containing 10 μg/ml PhenylMetheylsulfonyl fluoride. Homogenate was centrifuged at 15,000 rpm for 10 minutes and the supernatant stored at −80 C. till it was tested for GM-CSF levels using an ELISA kit.

[3] = tested on: O12 human oropharyngeal squamous cell carcinoma tumor cells; experiment: Intratumoral rhLF in O12 tumors in nude mice (Example 17); format: in vivo, athymic nude mice
Description: O12 human oropharyngeal squamous cell carcinoma tumor cells were injected to the right flank of athymic nude mice. Recombinant human lactoferrin and vehicle controls were dosed via intratumoral injection. Each animal was administered different concentrations of rhLF in 50 μL doses consisting of four separate injections of approximately 12.5 μL of the dose, at different directions and angles (approximately S/N/E/W) to ensure that the dose was distributed evenly throughout the tumor (fanning).
In this study, rhLF was administered directly into the tumor. Each animal was tracked daily for tumor growth by external caliper measurements of the protruding tumor.

[4] = intratumoral 250 or 500 μg per dose daily for 4 days, blood 24 h after last injection
[5] = oral 65 mg/kg rhLF versus 300 mg/kg bLF
[6] = oral 65 mg/kg/day for three days
[7] = oral 300 mg/kg rhLF versus 300 mg/kg bLF
[8] = oral 300 mg/kg/day for three days
[9] = oral, rhLF at both doses, bLF 300 mg/kg/day

B1: Recombinant human lactoferrin (protein, UniProt P02788 20-710, looked up)
Lactotransferrin: GRRRSVQWCAVSQPEATKCFQWQRNMRKVRGPPVSCIKRDSPIQCIQAIAENRADAVTLDGGFIYEAGLAPYKLRPVAAEVYGTERQPRTHYYAVAVVKKGGSFQLNELQGLKSCHTGLRRTAGWNVPIGTLRPFLNWTGPPEPIEAAVARFFSASCVPGADKGQFPNLCRLCAGTGENKCAFSSQEPYFSYSGAFKCLRDGAGDVAFIRESTVFEDLSDEAERDEYELLCPDNTRKPVDKFKDCHLARVPSHAVVARSVNGKEDAIWNLLRQAQEKFGKDKSPKFQLFGSPSGQKDLLFKDSAIGFSRVPPRIDSGLYLGSGYFTAIQNLRKSEEEVAARRARVVWCAVGEQELRKCNQWSGLSEGSVTCSSASTTEDCIALVLKGEADAMSLDGGYVYTAGKCGLVPVLAENYKSQQSSDPDPNCVDRPVEGYLAVAVVRRSDTSLTWNSVKGKKSCHTAVDRTAGWNIPMGLLFNQTGSCKFDEYFSQSCAPGSDPRSNLCALCIGDEQGENKCVPNSNERYYGYTGAFRCLAENAGDVAFVKDVTVLQNTDGNNNEAWAKDLKLADFALLCLDGKRKPVTEARSCHLAMAPNHAVVSRMDKVERLKQVLLHQQAKFGRNGSDCPDKFCLFQSETKNLLFNDNTECLARLHGKTTYEKYLGPQYVAGITNLKKCSTSPLLEACEFLRK
notes: human lactoferrin produced recombinantly
For B1, the “Inhibition Relative to Placebo” value ([1]; intratumoral, twice a day for eight days, 0.05 μg to 125 μg per dose, Day 19) was 28%, the “Inhibition Relative to Placebo” value ([1]; intratumoral, twice a day for eight days, 0.05 μg to 125 μg per dose, Day 28) was 46% and the “Inhibition Relative to Placebo” value ([1]; intravenous 125 ug/dose twice a day for five days, Day 19) was 55%. For the same molecule, the “Inhibition Relative to Placebo” value ([1]; intravenous 125 ug/dose twice a day for five days, Day 28) was 65%, the “Inhibition Relative to Placebo” value ([1]; oral 20 mg/dose twice a day for eight days, Day 19) was 76% and the “Inhibition Relative to Placebo” value ([1]; oral 20 mg/dose twice a day for eight days, Day 28) was 80%. The “Number of Cells CD3+” value (circulating lymphocytes; [4]) was 3291, the “Number of Cells CD4+” value (circulating lymphocytes; [4]) was 2621 and the “Number of Cells CD8+” value (circulating lymphocytes; [4]) was 1054. The “Increase with rhLF, CD3+” value (circulating lymphocytes; relative to placebo) was 56%, the “Increase with rhLF, CD4+” value (circulating lymphocytes; relative to placebo) was 46% and the “Increase with rhLF, CD8+” value (circulating lymphocytes; relative to placebo) was 34%. The “IL-18 Intestinal Extract % Increase Over Control” value (IL-18; oral 65 mg/kg) was 725%, the “IL-18 Serum % Increase Over Control” value (IL-18; oral 65 mg/kg) was 84% and the “IL-18 Intestinal Extract % Increase Over Blf” value (IL-18; [5]) was 75%. For the same molecule, the “IL-18 Serum % Increase Over Blf” value (IL-18; [5]) was 94%, the “IL-18 Intestinal Extract” value (IL-18; [6]) was 7,879 pg and the “IL-18 Serum” value (IL-18; [6]) was 259 pg. For the same molecule, the “IL-18 Intestinal Extract % Increase Over Control” value (IL-18; oral 300 mg/kg) was 775%, the “IL-18 Serum % Increase Over Control” value (IL-18; oral 300 mg/kg) was 132% and the “IL-18 Intestinal Extract % Increase Over Blf” value (IL-18; [7]) was 85%. The “IL-18 Serum % Increase Over Blf” value (IL-18; [7]) was 145%, the “IL-18 Intestinal Extract” value (IL-18; [8]) was 8,350 pg and the “IL-18 Serum” value (IL-18; [8]) was 328 pg. The “effect on amount of IL-18 in the intestinal extract” value (IL-18; [9]) was “significantly enhanced”, the “effect on amount of IL-18 in the serum” value (IL-18; [9]) was “significantly enhanced” and the “TGI (%) Relative to Placebo” value [2] was 33%. For the same molecule, the “Post Treatment 1 % Growth” value (metastatic cancer; Patient # 007, Lung, 7.5 weeks, pretreatment 160% (5.5 weeks)) was 13% (7.5), the “Post Treatment 2 % Growth” value (metastatic cancer; Patient # 007, Lung, 8.5 weeks) was 12% (8.5) and the “Post Treatment 2 % Growth” value (metastatic cancer; Patient # 102, Ovarian, 8.5 weeks) was −7% (8.5). The “Post Treatment 1 % Growth” value (metastatic cancer; Patient # 102, Ovarian, 10.5 weeks, pretreatment 30% (21 weeks)) was −5% (10.5), the “Post Treatment 2 % Growth” value (metastatic cancer; Patient # 104, Gastric, 7 weeks) was −5% (7) and the “Post Treatment 1 % Growth” value (metastatic cancer; Patient # 104, Gastric, 10 weeks, pretreatment 25% (5.5 weeks)) was 10% (10). The “Post Treatment 1 % Growth” value (metastatic cancer; Patient # 106, Melanoma, 11 weeks, pretreatment 24% (19 weeks)) was −18% (11), the “Post Treatment 2 % Growth” value (metastatic cancer; Patient # 204, Breast, 6.5 weeks) was 0% (6.5) and the “Post Treatment 1 % Growth” value (metastatic cancer; Patient # 204, Breast, 10 weeks, pretreatment 40% (8 weeks)) was 0% (10). For the same molecule, the “patients with stable disease by the RECIST criteria at the first post-treatment scan” value (metastatic cancer; nine of nineteen evaluable patients, oral 1.5 to 9 grams daily) was 47%, the “GM-CSF Mean (SEM)” value (GM-CSF; 24 h after last dose) was 7.74 (0.19) pg and the “GM-CSF Increase over Placebo” value (GM-CSF; p < 0.01) was 19.4% (p < 0.01). The “reduction of rates of tumor growth versus pooled placebo” value ([3]; Group A, single intratumoral dose, day 11 after administration, p<0.05) was 50% and the “reduction of rates of tumor growth versus pooled control group” value ([3]; Group C, intratumoral twice daily for 8 days, p<0.01) was 56%.
